Target: the molecule itself
Assay: single-molecule brightness analysis (TOCCSL); live CHO cells stably expressing mGFP–hDAT, TIRF microscopy of the plasma membrane, room temperature; mobile fraction only; also at low (~5/μm^2) and high (~40/μm^2) surface density and after cholesterol oxidase (2 units/ml, 30 min), MβCD (5 mM, 1 h) or m-3M3FBS (25 μM, 20 min): distribution unchanged

B1: human dopamine transporter fused to monomeric GFP (mGFP–hDAT) (natural protein, UniProt Q01959 1-620, looked up)
chain: MSKSKCSVGLMSSVVAPAKEPNAVGPKEVELILVKEQNGVQLTSSTLTNPRQSPVEAQDRETWGKKIDFLLSVIGFAVDLANVWRFPYLCYKNGGGAFLVPYLLFMVIAGMPLFYMELALGQFNREGAAGVWKICPILKGVGFTVILISLYVGFFYNVIIAWALHYLFSSFTTELPWIHCNNSWNSPNCSDAHPGDSSGDSSGLNDTFGTTPAAEYFERGVLHLHQSHGIDDLGPPRWQLTACLVLVIVLLYFSLWKGVKTSGKVVWITATMPYVVLTALLLRGVTLPGAIDGIRAYLSVDFYRLCEASVWIDAATQVCFSLGVGFGVLIAFSSYNKFTNNCYRDAIVTTSINSLTSFSSGFVVFSFLGYMAQKHSVPIGDVAKDGPGLIFIIYPEAIATLPLSSAWAVVFFIMLLTLGIDSAMGGMESVITGLIDEFQLLHRHRELFTLFIVLATFLLSLFCVTNGGIYVFTLLDHFAAGTSILFGVLIEAIGVAWFYGVGQFSDDIQQMTGQRPSLYWRLCWKLVSPCFLLFVVVVSIVTFRPPHYGAYIFPDWANALGWVIATSSMAMVPIYAAYKFCSLPGSFREKLAYAIAPEKDRELVDRGEVRQFTLRHWLKV
notes: human dopamine transporter (hDAT); XhoI/HindIII fragment of hDAT cDNA ligated into mGFP-C1, then cloned into pIB2; mGFP is fused to the cytosolic N terminus of hDAT; also called mEGFP–hDAT; mGFP–DAT; source: CHO cells stably expressing mGFP–hDAT (viral transduction, blasticidine selection), in the live cell plasma membrane; not shown: mGFP (eGFP with A206K), N-terminal, kept
With B1 the “stoichiometry N” value was 2.

Reference: article PMC6462504, “Dopamine transporter forms stable dimers in the live cell plasma membrane in a phosphatidylinositol 4,5-bisphosphate–independent manner” (The Journal of Biological Chemistry, 2019)
